The values below come from article PMC8184657.

The assay addresses insulin (bovine insulin) (bovine). Briefly: ITC.

For the substance IS1 (tetrapeptide VYYR), the Ka stood at 0.00346 M⁻¹ and the dH was -18.7 kcal/mol.
